For series [1], the target named is T1, Tailor (DmTailor180-560) (Drosophila melanogaster, UniProt Q9VI58 180-560). Kind of series: crystal structure (2.0 A); two Mg2+; Crystallization conditions not in material; protein stock 20 mM HEPES pH 7.0, 150 mM KCl, 2 mM MgCl2, 1 mM DTT. The settings on record: protein: recombinant; tags: none after TEV cleavage (His6-MBP removed); single strand.
The target of series [2] is T1, Tailor (DmTailor180-560). As to the kind of experiment: crystal structure (1.85 A); two Mg2+; Crystallization conditions not in material; protein stock 20 mM HEPES pH 7.0, 150 mM KCl, 2 mM MgCl2, 1 mM DTT. Conditions: protein: recombinant; tags: none after TEV cleavage (His6-MBP removed); single strand.

T1 sequence (Q9VI58 180-560): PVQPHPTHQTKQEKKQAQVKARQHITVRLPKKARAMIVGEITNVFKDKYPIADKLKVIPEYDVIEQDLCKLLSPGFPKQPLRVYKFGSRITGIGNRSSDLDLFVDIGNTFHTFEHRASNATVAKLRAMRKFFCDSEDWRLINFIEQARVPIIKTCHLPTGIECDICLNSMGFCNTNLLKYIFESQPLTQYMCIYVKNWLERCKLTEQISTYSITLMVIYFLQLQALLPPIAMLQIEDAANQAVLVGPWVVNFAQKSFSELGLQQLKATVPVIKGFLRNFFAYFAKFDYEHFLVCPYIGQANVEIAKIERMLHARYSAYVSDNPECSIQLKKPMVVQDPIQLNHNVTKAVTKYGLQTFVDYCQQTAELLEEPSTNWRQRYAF

B1: U6 (ssRNA)
RNA: UUUUUU
In the case of B1, the binding result with Tailor (DmTailor180-560) [1] is recorded as “binds”.

B2: CACAGU (ssRNA)
RNA: CACAGU
For the molecule B2, in the series with Tailor (DmTailor180-560) [2], the binding result is listed as “binds”.

The values are drawn from paper PMC6344859, “Structural basis for acceptor RNA substrate selectivity of the 3′ terminal uridylyl transferase Tailor”.
